Here are results for 13 variants from the supplement of paper PMC7125110.

B1: glmS ribozyme (parent)
chain: AUAAAAGCGCCAGAACUACAGAAAUGUAGUUGACGAGGAGGAGGUUUAUCGAAUUUUCGGCGGAUGCCUCCAAA

Common to all, as to settings: with glucosamine-6-phosphate
Variants of B1 are the subject of series [1]. The experiment in a line: kcat; higher = faster cleavage; RNA array. The gist of the method: (§1)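 Glucosamine-6-phosphate (40 μM to 10 mM) in HEPES/KCl/Mg(OAc)2 buffer was flowed over sequenced MiSeq chips, and tiles were imaged over ~14 h. Barcoded ribozyme variants there had been transcribed in situ by E. coli RNA polymerase and were tracked through a hybridised Cy3 probe at 37 °C. One- or two-exponential decay fits to per-tile medians, normalised to baseline and to non-cleaving reference variants, gave kobs. kcat and KM came from weighted Michaelis–Menten fits across concentrations.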

In series [2] the parent is B1. The experiment in a line: KM; higher = weaker cofactor use; RNA array. The gist of the method:
as §1

Series [3] covers variants of B1. Description: self-cleavage kobs at 40 uM GlcN6P; higher = faster cleavage; RNA array. The gist of the method:
as §1

The variants in series [4] derive from B1. Description: self-cleavage kobs at 160 uM GlcN6P; higher = faster cleavage; RNA array. Put shortly:
as §1

Variants of B1 are the subject of series [5]. The experiment in a line: self-cleavage kobs at 640 uM GlcN6P; higher = faster cleavage; RNA array. Put shortly: as §1
The variants in series [6] derive from B1. The experiment in a line: self-cleavage kobs at 2500 uM GlcN6P; higher = faster cleavage; RNA array. The gist of the method: as §1
The variants in series [7] derive from B1. The experiment in a line: self-cleavage kobs at 10000 uM GlcN6P; higher = faster cleavage; RNA array. The gist of the method: as §1

± gives the standard error. For some of these results: Fewer inactive variants are shown than the library holds.

G29U G32A: the kcat with glucosamine-6-phosphate [1] was 0.00151 ± 0.00013 s⁻¹. Further, the Michaelis constant (KM) with glucosamine-6-phosphate [2] worked out at 2210 ± 350 µM. Besides, in the series with glucosamine-6-phosphate [3], the “self-cleavage kobs at 40 uM GlcN6P” value amounted to 3.81e-05 ± 1.5e-05 s⁻¹. Besides, in the series with glucosamine-6-phosphate [4], the “self-cleavage kobs at 160 uM GlcN6P” value was found to be 0.000105 ± 2.4e-05 s⁻¹. Also, in the series with glucosamine-6-phosphate [5], the “self-cleavage kobs at 640 uM GlcN6P” value came to 0.000328 ± 6.3e-05 s⁻¹. In the series with glucosamine-6-phosphate [6], the “self-cleavage kobs at 2500 uM GlcN6P” value is 0.000738 ± 0.00012 s⁻¹. In addition, in the series with glucosamine-6-phosphate [7], the “self-cleavage kobs at 10000 uM GlcN6P” value turned out to be 0.00128 ± 0.00016 s⁻¹.

For the variant A14G U47C, the kcat with glucosamine-6-phosphate [1] was 0.00925 ± 0.0028 s⁻¹. In the series with glucosamine-6-phosphate [2], the KM came to 1160 ± 520 µM. For the same variant, in the series with glucosamine-6-phosphate [3], the “self-cleavage kobs at 40 uM GlcN6P” value amounted to 0.000316 ± 5.1e-05 s⁻¹. Moreover, the “self-cleavage kobs at 160 uM GlcN6P” value with glucosamine-6-phosphate [4] amounted to 0.00182 ± 0.00041 s⁻¹. Also, the “self-cleavage kobs at 640 uM GlcN6P” value with glucosamine-6-phosphate [5] is 0.00236 ± 0.00055 s⁻¹. Besides, the “self-cleavage kobs at 2500 uM GlcN6P” value with glucosamine-6-phosphate [6] is 0.0109 ± 0.0027 s⁻¹. Moreover, the “self-cleavage kobs at 10000 uM GlcN6P” value in the series with glucosamine-6-phosphate [7] came out at 0.00833 ± 0.0014 s⁻¹.

C10A U65G: the catalytic constant (kcat) with glucosamine-6-phosphate [1] was less than 1e-05 s⁻¹. In the series with glucosamine-6-phosphate [3], the “self-cleavage kobs at 40 uM GlcN6P” value is less than 1e-05 s⁻¹. In addition, in the series with glucosamine-6-phosphate [5], the “self-cleavage kobs at 640 uM GlcN6P” value was less than 1e-05 s⁻¹. Moreover, in the series with glucosamine-6-phosphate [6], the “self-cleavage kobs at 2500 uM GlcN6P” value is less than 1e-05 s⁻¹. Moreover, the “self-cleavage kobs at 10000 uM GlcN6P” value with glucosamine-6-phosphate [7] was less than 1e-05 s⁻¹.

As for U31A U56C, the kcat with glucosamine-6-phosphate [1] was 0.00331 ± 0.0008 s⁻¹. For the same variant, in the series with glucosamine-6-phosphate [2], the Michaelis constant (KM) stood at 2630 ± 990 µM. Also, the “self-cleavage kobs at 40 uM GlcN6P” value in the series with glucosamine-6-phosphate [3] amounted to 6.48e-05 ± 1.3e-05 s⁻¹. The “self-cleavage kobs at 160 uM GlcN6P” value with glucosamine-6-phosphate [4] turned out to be 0.000186 ± 4.2e-05 s⁻¹. In addition, the “self-cleavage kobs at 640 uM GlcN6P” value with glucosamine-6-phosphate [5] is 0.00066 ± 0.00012 s⁻¹. Further, in the series with glucosamine-6-phosphate [6], the “self-cleavage kobs at 2500 uM GlcN6P” value is 0.00115 ± 0.00025 s⁻¹. The “self-cleavage kobs at 10000 uM GlcN6P” value with glucosamine-6-phosphate [7] worked out at 0.00299 ± 0.00037 s⁻¹.

Take A12C U65C: in the series with glucosamine-6-phosphate [1], the catalytic constant (kcat) stood at 0.00043 ± 7.3e-05 s⁻¹. Besides, the KM with glucosamine-6-phosphate [2] is 1950 ± 620 µM. The “self-cleavage kobs at 640 uM GlcN6P” value with glucosamine-6-phosphate [5] amounted to 0.000102 ± 1.9e-05 s⁻¹. In addition, in the series with glucosamine-6-phosphate [6], the “self-cleavage kobs at 2500 uM GlcN6P” value was 0.000328 ± 8.4e-05 s⁻¹. The “self-cleavage kobs at 10000 uM GlcN6P” value in the series with glucosamine-6-phosphate [7] came out at 0.000343 ± 6.2e-05 s⁻¹.

Consider G13A U30G, for which, in the series with glucosamine-6-phosphate [1], the kcat amounted to 0.000441 ± 4.8e-05 s⁻¹. Also, in the series with glucosamine-6-phosphate [2], the KM amounted to 6050 ± 1100 µM. In addition, the “self-cleavage kobs at 640 uM GlcN6P” value with glucosamine-6-phosphate [5] was determined as 3.9e-05 ± 1e-05 s⁻¹. The “self-cleavage kobs at 2500 uM GlcN6P” value in the series with glucosamine-6-phosphate [6] was 0.000144 ± 3.3e-05 s⁻¹. In addition, the “self-cleavage kobs at 10000 uM GlcN6P” value with glucosamine-6-phosphate [7] is 0.000271 ± 3.9e-05 s⁻¹.

As to A14G U54C, the catalytic constant (kcat) in the series with glucosamine-6-phosphate [1] amounted to 0.151 ± 0.0085 s⁻¹. Moreover, in the series with glucosamine-6-phosphate [2], the KM is 4420 ± 270 µM. The “self-cleavage kobs at 40 uM GlcN6P” value in the series with glucosamine-6-phosphate [3] came out at 0.00134 ± 0.00025 s⁻¹. In addition, the “self-cleavage kobs at 160 uM GlcN6P” value in the series with glucosamine-6-phosphate [4] is 0.00536 ± 0.00096 s⁻¹. Moreover, the “self-cleavage kobs at 640 uM GlcN6P” value in the series with glucosamine-6-phosphate [5] turned out to be 0.0185 ± 0.0064 s⁻¹. For the same variant, in the series with glucosamine-6-phosphate [7], the “self-cleavage kobs at 10000 uM GlcN6P” value came to 0.105 ± 0.042 s⁻¹.

In the case of G40C G63C, in the series with glucosamine-6-phosphate [1], the kcat is less than 1e-05 s⁻¹. Moreover, the “self-cleavage kobs at 160 uM GlcN6P” value in the series with glucosamine-6-phosphate [4] was less than 1e-05 s⁻¹. In the series with glucosamine-6-phosphate [6], the “self-cleavage kobs at 2500 uM GlcN6P” value was less than 1e-05 s⁻¹.

For the variant A14G G29C U56A, the kcat with glucosamine-6-phosphate [1] was determined as 0.00138 ± 0.00036 s⁻¹. The KM with glucosamine-6-phosphate [2] came out at 1960 ± 970 µM. Moreover, the “self-cleavage kobs at 40 uM GlcN6P” value with glucosamine-6-phosphate [3] turned out to be 3.76e-05 ± 1.8e-05 s⁻¹. The “self-cleavage kobs at 640 uM GlcN6P” value with glucosamine-6-phosphate [5] was determined as 0.000364 ± 8.4e-05 s⁻¹. Also, in the series with glucosamine-6-phosphate [6], the “self-cleavage kobs at 2500 uM GlcN6P” value was 0.000647 ± 0.00014 s⁻¹. Besides, in the series with glucosamine-6-phosphate [7], the “self-cleavage kobs at 10000 uM GlcN6P” value was 0.00136 ± 0.00029 s⁻¹.

Take A6C U45A: the kcat with glucosamine-6-phosphate [1] came out at 0.000229 ± 1.7e-05 s⁻¹. Further, in the series with glucosamine-6-phosphate [2], the KM came to 3720 ± 750 µM. For the same variant, the “self-cleavage kobs at 40 uM GlcN6P” value with glucosamine-6-phosphate [3] was less than 1e-05 s⁻¹. In addition, the “self-cleavage kobs at 640 uM GlcN6P” value with glucosamine-6-phosphate [5] is 3.95e-05 ± 1.9e-05 s⁻¹. Besides, the “self-cleavage kobs at 2500 uM GlcN6P” value with glucosamine-6-phosphate [6] amounted to 8.34e-05 ± 2.8e-05 s⁻¹. Also, the “self-cleavage kobs at 10000 uM GlcN6P” value with glucosamine-6-phosphate [7] was determined as 0.000168 ± 2.1e-05 s⁻¹.

As to U55A U65C, in the series with glucosamine-6-phosphate [1], the kcat is 0.000613 ± 6.7e-05 s⁻¹. Further, the KM with glucosamine-6-phosphate [2] amounted to 1160 ± 230 µM. In addition, the “self-cleavage kobs at 160 uM GlcN6P” value with glucosamine-6-phosphate [4] is 7.83e-05 ± 1.4e-05 s⁻¹. The “self-cleavage kobs at 640 uM GlcN6P” value in the series with glucosamine-6-phosphate [5] was 0.0002 ± 2.9e-05 s⁻¹. Moreover, the “self-cleavage kobs at 2500 uM GlcN6P” value in the series with glucosamine-6-phosphate [6] turned out to be 0.000471 ± 6.1e-05 s⁻¹. The “self-cleavage kobs at 10000 uM GlcN6P” value in the series with glucosamine-6-phosphate [7] came out at 0.000505 ± 9.2e-05 s⁻¹.

C16A A64G: in the series with glucosamine-6-phosphate [1], the kcat amounted to 0.00134 ± 0.00022 s⁻¹. The KM in the series with glucosamine-6-phosphate [2] worked out at 2060 ± 520 µM. In addition, the “self-cleavage kobs at 40 uM GlcN6P” value with glucosamine-6-phosphate [3] amounted to 3.87e-05 ± 8.2e-06 s⁻¹. Also, the “self-cleavage kobs at 160 uM GlcN6P” value with glucosamine-6-phosphate [4] is 9.99e-05 ± 1.3e-05 s⁻¹. In the series with glucosamine-6-phosphate [5], the “self-cleavage kobs at 640 uM GlcN6P” value was determined as 0.000277 ± 3.5e-05 s⁻¹. Further, in the series with glucosamine-6-phosphate [6], the “self-cleavage kobs at 2500 uM GlcN6P” value is 0.000757 ± 7.7e-05 s⁻¹. Also, the “self-cleavage kobs at 10000 uM GlcN6P” value in the series with glucosamine-6-phosphate [7] turned out to be 0.00113 ± 0.00015 s⁻¹.

As for A12C A42G, in the series with glucosamine-6-phosphate [1], the kcat amounted to 0.0188 ± 0.0076 s⁻¹. Also, in the series with glucosamine-6-phosphate [3], the “self-cleavage kobs at 40 uM GlcN6P” value was determined as 0.00118 ± 0.00019 s⁻¹. For the same variant, the “self-cleavage kobs at 160 uM GlcN6P” value with glucosamine-6-phosphate [4] worked out at 0.00222 ± 0.00053 s⁻¹. The “self-cleavage kobs at 640 uM GlcN6P” value with glucosamine-6-phosphate [5] was 0.00579 ± 0.0016 s⁻¹. For the same variant, the “self-cleavage kobs at 2500 uM GlcN6P” value with glucosamine-6-phosphate [6] amounted to 0.0085 ± 0.0026 s⁻¹. Also, the “self-cleavage kobs at 10000 uM GlcN6P” value in the series with glucosamine-6-phosphate [7] stood at 0.0248 ± 0.0036 s⁻¹.
